For 22 molecules, EC50 results are on record in patent US20240218057A1 (ROCKEFELLER UNIVERSITY, published 2024).

Sequences and labels used below:
B1: C1029 (antibody, V domains shown)
VH: QVQLVESGGGVVQPGRSLRLSCAASGFTFSSFGMHWVRQAPGKGLEWVAVISYDGSYKDYGDSVKGRFTISRDNSKNTLYLQMNSLRAEDTAVYYCARDSNVDTVMVTWFDYWGRGTLVTVSS
VL: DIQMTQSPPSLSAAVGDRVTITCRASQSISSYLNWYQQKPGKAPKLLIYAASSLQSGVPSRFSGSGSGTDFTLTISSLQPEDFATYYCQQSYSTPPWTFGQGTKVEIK
notes: IgG; V domains only
B2: C950 (antibody, V domains shown)
VH: QVQLVESGGGLVKPGGSLRLSCAASGFTFSDYCVTWIRQAPGKGLEWLSYSNTNDSSRSYADSVKGRFTISRDNAKNSLYLQMDSLRAEDTAVYYCARRGDGNVPLFHYYYMDVWGKGTTVTVSS
VL: QSVLTQPPSASGTAGQRVTISCSGGSSNIGSNTVHWYQQLPGTAPKLLIYSNYKRPSGVPDRFSGSKSGASASLAISGLQSEDEAEYYCAAWDDSANGPIFGGGTKLTVL
notes: IgG; V domains only
B3: C1024 (antibody, V domains shown)
VH: QVQLVESGGGVVQPGRSLRLSCAASGFTFSDYAMHWVRQAPGKGLEWVAMISYDGNSQYYADSVKGRFTISRDNSKNTLYLQMNILRPEDTAVYYCARTFSIRIGHHDYWGQGTLVTVSS
VL: NFMLTQPHSVSESPGKTVTISCTGSSGSIASNYVHWYQQRPGSAPTTVIFEDNQRPSGVPDRFSGSIDSSSNSASLTISGLKTEDEADYYCQSYDSSSFWVFGGGTKLTVL
notes: IgG; V domains only
B4: C1031 (antibody, V domains shown)
VH: QLQLQESGPGLVKPSETLSLTCTVSGGSINTSTYYWGWIRQPPGKGLEWIGNIYYSGITYYNPSLKSRVTISVDTSKNQFSLKLRSVTAADTAVYYCARQHRFGSGSSELLWGQGTLVTVSS
VL: QSALTQPPSASGSPGQSVTISCTGTSSDVGSYNYVSWYQQHPGKAPKLMIYEVTKRPSGVPDRFSGSKSGNTASLTVSGLQADDEADYYCSSYAGSSNLVFGGGTKLTV
notes: IgG; V domains only
B5: C1021 (antibody, V domains shown)
VH: QVQLVQSGAELKKPGASVKVSCKASGYTFSTYYIHWVRQAPGQGLEWMGIINPEAGSTSYAQKFQGRVTMTTDTSTSTVYMELISLRSQDTAIYYCARDAVGVPAINSLEYWGQGTLVTVSS
VL: EIVLTQSPATLSLSPGERATLSCRASQSISSYLAWYQQKPGQAPRLLIYDASNRATDISARFSGSGSGTDFTLTISSLEPEDFAVYYCQHRSNWPPSFTFGGGTKVEIK
notes: IgG; V domains only
B6: C1022 (antibody, V domains shown)
VH: QVQLVQSGAEVKTPGASVKVSCQASGDTFTSQYLHWVRQAPGQGLEWMGIINPTAGSTTYAQKFQGRVTMTRDTSTSTVYMELRSLRSEDMAVYYCARGGFIPMVRGFIDHWGQGTLVTVSS
VL: QSALTQPASVSGSPGQSITISCTGTSSDVGGYNYVSWYQQHPGKAPKLMIYDVSNRPSGVSTRFSGSKSGNTASLTISGLQAEDEADYYCSSPTSSNTHVFGTGTKVTVL
notes: IgG; V domains only
B7: C1033 (antibody, V domains shown)
VH: QVQLVQSGAEVKKPGSSVKVSCKASGGTFSRNVISWVRQAPGQGLEWMGGIIPMFGTANYAQKFQGRVTISADESTSTAYMELSSLRSEDTAVYYCAREDFILESAPIRENSYYYYGMDVWGQGTTVTVSS
VL: EIVLTQSPGTLSLSPGERATLSCRASQSVSSNYLAWYQQKPGQAPRLLIYDASSRATGIPDRFSGSGSGTDFTLTIRRLEPEDFAVYYCQQYGGSPRTFGQGTKVEIK
notes: IgG; V domains only
B8: C1035 (antibody, V domains shown)
VH: EVQLVESGGGLIQPGGSLRLSCAASGLTVSRNYMNWVRQAPGKGLEWVSVMYSGGSTFYADSVKGRFTISRDNSKNTLYLQMNSLRAEDTAVYYCARESYGMDVWGQGTTVTVSS
VL: EIVLTQSPGTLSLSPGERATLSCRASQSFSSTYLAWYQQKPGQAPRLLIYGASSRATGIPDRFSGSGSGTDFTLTISRLEPEDFAVYYCQQYVTSPWTFGQGTKVEIK
notes: IgG; V domains only
B9: C1036 (antibody, V domains shown)
VH: EVQLVESGGGLIQPGGSLRLSCAASGLIVSRNYMNWVRQVPGKGLEWVSVMYAGGSTFYADSVKGRFTISRDDSKNTLYLQMNSLRPEDTAVYYCARESYGMDVWGQGTTVTVSS
VL: EIVLTQSPGTLSLSPGERATLSCRASQSISSTYLAWYQQKPGQAPRLLIYGASSRATGIPDRFSGSGSGTDFTLTISRLEPEDFAVYYCQQYVTSPWTFGQGTKVEIK
notes: IgG; V domains only
B10: C1041 (antibody, V domains shown)
VH: QVQLVQSGAEVKKPGASVKVSCKASGYTFSDHYIYWVRQAPGQGLEWMGIINPSAGSTSYAQKFQGRVTMTRDTSTSTVYMELSSLRSEDTAVYYCARDIVFVPATMAMDVWGLGTTVTVSS
VL: EIVLTQSPATLSLSPGERATLSCRASQSVSRYLAWYQQKPGQAPRLLIYDASNRATGIPARFSGSGSGTDFTLTISSLEPEDFAVYYCQQRSNWLFTFGPGTKVDIK
notes: IgG; V domains only
B11: C1042 (antibody, V domains shown)
VH: QVQLVQSGAEVKKPGASVKVSCKASGYTFSDHYIYWVRQAPGQGLEWMGIINPSGGSTSYAQKFQGRVTMTRDTSTSTVYMELSSLKSEDTAVYYCSRDIVFVPATMAMDVWGQGTTVTVSS
VL: EIVLTQSPATLSLSPGERATLSCRASQSVSRYLAWYQQKPGQAPRLLIYDASNRATGIPARFSGSGSGTDFTLTISSLEPEDFAVYYCQQRSNWLFTFGPGTKVDIK
notes: IgG; V domains only
B12: C1032 (antibody, V domains shown)
VH: EVQLVESGGSLVKPGGSLRLSCVASGLTFNHAWMSWVRQAPGKGLEWVGRIKSKIDGGTTDYAAPVKGRFTISRDDSKSTQYLQMNSLKTEDTAVYYCTTDCFWRLGGTTCYEHDAFDVWGQGTMVTVS
VL: DIQMTQSPSSLSASVGDRVTITCRASQAIATFLNWYQQKPGKAPKLLIYAASSLQSGVPSRFSGSGSGTDFTLTISSLQPEDFATYYCQQSYNSLHFGGGTKVEIK
notes: IgG; V domains only
B13: C1044 (antibody, V domains shown)
VH: QVQLQESGPGLVKPSQTLSLTCTVSGGSISSGNYYLTWIRQPAGKGLEWIGHIYTSGSTNYNPSLKSRVTISVDTSMNQFSLKLSSVTAADTAVYYCARDIPPTWYFDLWGRGTLVTVSS
VL: SYELTQPPSVSVAPGKTARITCGGNNIGSKNVHWYQQKPGQAPVLVVYDDSDRPSGIPERFSGSNSGNTATLTISRVEAGDEAGYYCQVWDSTSDHLFWVFGGGTKLTVL
notes: IgG; V domains only
B14: C1045 (antibody, V domains shown)
VH: QVQLQESGPGLVKPSQTLSLTCTVSGDSISSGNYYWSWIRQPAGKGLEWIGHIYTSGSPNYKPSLKSRVTISLDTSKNQFSLKLTSVTAADTAMYYCARDIPSTWYFDLWGRGTLVTVSS
VL: SYELTQPPSVSVAPGKTARIPCGGTDIGSKNVHWYQQKPGQAPVLAVYDDSDRPSGIPERFSGSNSGSTATLTISRVEAGDEADYYCQVWDSSGDRLSWVFGGGTKLTVL
notes: IgG; V domains only
B15: C1038 (antibody, V domains shown)
VH: QVQLVQSGAEVKKPGASVKVSCKASGYTFTSYYMHWVRQAPGQGLEWMGIINPSGGSTRYAQKFQGRVTMTRDTSTSTVYMELSSLRSEDTAVYYCAREGVGGTSYFDYWGQGTLVTVSS
VL: SYELTQPPSVSVAPGKTARITCGGNNIGSKSVHWYQQKPGQAPVLVVYDDSDRPSGIPERFSGSNSGNTATLTISRVEAGDEADYYCQVWDSSSDPYVFGTGTKVTVL
notes: IgG; V domains only
B16: C1039 (antibody, V domains shown)
VH: QVQLVQSGAEVKKPGASVKVSCKASGYTFTSHYMHWVRQAPGQGLEWMGIINPRTRYAQMFQGRVSMNRDTSTSTVYMELSSLTSEDTAVYYCAREGLGATAYFDYWGQGTLVTVSS
VL: SYELTQPPSVSVAPGKTAGITCGGSDIGSKSVHWYQQKPGQAPVLVVYDDSDRPSGIPERFSGSNSGNTATLTISRVEAGDEADYYCQVWDSSSDPYVFGTGTKVSVL
notes: IgG; V domains only
B17: C1023 (antibody, V domains shown)
VH: QVQLVQSGAEMKKPGASVKISCKASGDTFTTNYFHWVRQAPGQGLEWMGIINPSAGSTTYAQRFQGRVTMTGDSSTNTVYLELRSLRSEDTAMYFCAKGSYIPAMRSSFDPWGQGTLVTVSS
VL: EIVLTQSPGTLSLSPGERATLSCRASQSVSHRYLAWYQQKPGQAPRLLIDGASNRATGIPDRFSGSGSGTDFTLTISRLEPEDFGVYYCQQYGSSPPFTFGQGTKLEIK
notes: IgG; V domains only
B18: C1034 (antibody, V domains shown)
VH: QLQLQESGPGLVKPSETLSLTCTVSGGSVSSNNHYWGWIRQPPGKGLEWIGSISSSGSTHHNPSLRSRVTISVDTSKNHFSLKLNSVTATDTAVYYCARVDSSGWYTGDVFDVWGQGTMVTVSS
VL: DIQMTQSPSSLSASVGDRVTITCRASQTINNYLNWYQQKPGKPPKLLIYAAFSLHSGVPSRFSGSRSGTDFTLTISSLQPEDFATYYCQHSYSTMCSFGQGTKLEIK
notes: IgG; V domains only
B19: C1027 (antibody, V domains shown)
VH: EVQLVESGGGLVQPGGSLRLSCAASGFIVTTNYMSWVRQAPGKGLEWVSLIYPGGSTFYADSVEGRFTISRDNSKNTLYLQVNSLRVEDTAVYYCARDTFGRGDDHWGQGTLVTVSS
VL: DIQMTQSPSSLSASVGDRVTITCQASQDINIYLNWYQQRPGKAPKLLIYDASNLQTGVPSRFSGSGSGTDFTITISSLQPEDIATYYCQQYDNLPRSFGQGTKLEI
notes: IgG; V domains only
B20: C1025 (antibody, V domains shown)
VH: EVQLVESGGGLVQPGRSLRLSCAASGFTFDDYAMHWVRQVPGKGLEWVSGVSWNGDSVGYADSMEGRFTISRDNAKNSLYLQMNSLRTEDTALYYCAKGVDYSSSSNFDFWGQGTLVTVSS
VL: DIQMTQSPSSVSASVGDRVTITCRASQGISSWLAWYQQKPGKAPKLLISLASSLQSGVPSRFSGSGSETDFTLIISSLQPEDFATYYCQQSSSFPLTFGGGTKVEIK
notes: IgG; V domains only
B21: C1028 (antibody, V domains shown)
VH: QVQLVESGGGVVQPGRSLRLSCADSGFTFSSSGMHWVRQAPGKGLEWVGVISYDGGNKYYADSVKGRFTISRDNSKNTLYLQMNSLRAEDTAVYYCAKDTPGGDDIMTGWGLYGMDVWGQGTTVTVSS
VL: DIQMTQSPSSLSASVEDRVTITCRASQSISSYLNWYQQKPGKAPKLLIYAAISLQSGVPSRFSGSGSGTEFTLTISSLQPEDFATYYCQQSYTTPWAFGQGTKVEIK
notes: IgG; V domains only
B22: C1026 (antibody, V domains shown)
VH: QVQLVESGGGVVQPGKSLRLSCAASGFIFSSYSMHWVRQAPGKGLEWVAVVSNDGSGKFYADSVRGRFTIFRDNSKNTLYLQVSSLRAEDTAVYYCARDALTSISVLFDCWGQGTLVTVSS
VL: DIQMTQSPSSLSASLGDRVTITCRASQSISNYLNWYQQKPGKAPKLLIYGASSLQSGVPSRFSGSGSGTDFTLTISNLQPEDFATYFCQQSYSTPSVTFGGGTKVEIK
notes: IgG; V domains only

The assay concerns the target T1, SARS-COV-2 RBD (SARS-COV-2, UniProt P0DTC2 319-539).
T1 construct: also called WT RBD
Kind of assay: ELISA, RBD coated. (ELISA stands for enzyme-linked immunosorbent assay.)
For orientation: EC50 means the concentration giving half of the maximal effect. The low end stands for greater potency, the high end for weaker potency. In turn, B1 registered an EC50 of 2.86 ng/mL.

Regarding B2, a half-maximal response (EC50) required 2.15 ng/mL. In turn, B3 registered an EC50 of 2.37 ng/mL.

In turn, B4 registered an EC50 of 8.71 ng/mL.

The molecule B5 had an EC50 of 2.53 ng/mL. In turn, B6 showed an EC50 of 1.66 ng/mL. B7 showed an EC50 of 3.63 ng/mL. To B8 belongs 2.05 ng/mL; to B9, 1.76 ng/mL.

Molecule B10 gave an EC50 of 3.65 ng/mL. The molecule B11 returned an EC50 of 4.55 ng/mL.

B12 displayed an EC50 of 2.89 ng/mL. In turn, B13 returned an EC50 of 3.22 ng/mL. For the molecule B14, the EC50 amounted to 2.57 ng/mL. The same measure for B15: 2.46 ng/mL.

B16: a half-maximal response (EC50) required 2.61 ng/mL. The same measure for B17: 1.13 ng/mL; for B18: 2.77 ng/mL.

With B19, the EC50 was found to be 2.42 ng/mL. B20 registered an EC50 of 2.51 ng/mL. B21: a half-maximal effect (EC50) was put at 3.58 ng/mL. The same measure for B22: 2.5 ng/mL.
